According to the supplement of paper PMC9112550, “Optimization of the antimicrobial peptide Bac7 by deep mutational scanning” (BMC Biology, 2022):

System: Escherichia coli TOP10
Experiment: shrunken log2 fold change of peptide-encoding DNA abundance (4.5 h post-induction vs induction); higher = less antimicrobial activity (less host growth inhibition)
Conditions: time post-induction: 4.5 h; library: site-saturation at positions 5, 18, 19, 20
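Note: peptides expressed intracellularly from a pBAD plasmid library in pooled LB shake-flask culture, induced with 0.3% L-arabinose, DNA abundance read by NGS, three biological replicates, DESeq2 with apeglm shrinkage.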

Sequence	shrunken log2 fold change
RRIRHRPPRLPRPRPRPVLIPRP	-0.113
RRIRVRPPRLPRPRPRPQLNPRP	-0.292
RRIRPRPPRLPRPRPRPKFSPRP	-0.125
RRIRERPPRLPRPRPRPICDPRP	-0.221
RRIRIRPPRLPRPRPRPPAQPRP	0.0916
RRIRKRPPRLPRPRPRPWGMPRP	0.142
RRIRFRPPRLPRPRPRPTAHPRP	0.193
RRIRSRPPRLPRPRPRPAHRPRP	-0.0259
RRIRFRPPRLPRPRPRPSEMPRP	-0.148
RRIRYRPPRLPRPRPRPAWWPRP	0.365
RRIRARPPRLPRPRPRPIREPRP	-0.018
RRIRSRPPRLPRPRPRPLERPRP	-0.0196
RRIRPRPPRLPRPRPRPGTAPRP	0.163
RRIRNRPPRLPRPRPRPVVHPRP	-0.165
RRIRERPPRLPRPRPRPGRSPRP	-0.032
RRIRARPPRLPRPRPRPVCNPRP	0.0721
RRIRDRPPRLPRPRPRPAPIPRP	0.32
RRIRCRPPRLPRPRPRPVNKPRP	-0.196
RRIRPRPPRLPRPRPRPDNFPRP	-1.15
RRIRWRPPRLPRPRPRPECHPRP	0.563
RRIRNRPPRLPRPRPRPVHLPRP	-0.138
RRIRNRPPRLPRPRPRPVAGPRP	-0.124
RRIRYRPPRLPRPRPRPVQFPRP	-0.00142
RRIRFRPPRLPRPRPRPGDFPRP	-0.209
RRIRCRPPRLPRPRPRPLKWPRP	-0.0792

Sequence	shrunken log2 fold change
RRIRNRPPRLPRPRPRPQTNPRP	-0.276
RRIRHRPPRLPRPRPRPPTCPRP	0.0978
RRIRTRPPRLPRPRPRPNWMPRP	0.286
RRIRDRPPRLPRPRPRPSYRPRP	0.0164
RRIRIRPPRLPRPRPRPLTTPRP	-0.148
RRIRNRPPRLPRPRPRPQEDPRP	0.00256
RRIRYRPPRLPRPRPRPIINPRP	-0.099
RRIRFRPPRLPRPRPRPPLEPRP	0.288
RRIRHRPPRLPRPRPRPRKPPRP	0.321
RRIRYRPPRLPRPRPRPCGHPRP	-0.0238
RRIRMRPPRLPRPRPRPCATPRP	2.58
RRIRLRPPRLPRPRPRPILYPRP	-0.314
RRIRKRPPRLPRPRPRPPTQPRP	0.301
RRIRNRPPRLPRPRPRPVMRPRP	0.526
RRIRARPPRLPRPRPRPGENPRP	0.687
RRIRPRPPRLPRPRPRPWCWPRP	0.233
RRIRSRPPRLPRPRPRPCSPPRP	0.149
RRIRMRPPRLPRPRPRPKRGPRP	-0.0058
RRIRMRPPRLPRPRPRPVRLPRP	0.116
RRIRQRPPRLPRPRPRPEQEPRP	-0.0311
RRIRARPPRLPRPRPRPQDEPRP	0.195
RRIRKRPPRLPRPRPRPSTCPRP	-0.0517
RRIRERPPRLPRPRPRPYENPRP	0.0288
RRIRRRPPRLPRPRPRPYMVPRP	-0.361
RRIRERPPRLPRPRPRPVDSPRP	-0.0113

Sequence	shrunken log2 fold change
RRIRGRPPRLPRPRPRPKCHPRP	0.78
RRIRARPPRLPRPRPRPGYWPRP	0.363
RRIRPRPPRLPRPRPRPRDEPRP	0.0975
RRIRYRPPRLPRPRPRPMDDPRP	-0.0837
RRIRLRPPRLPRPRPRPKTSPRP	0.0111
RRIRKRPPRLPRPRPRPHLPPRP	0.0692
RRIRWRPPRLPRPRPRPRWEPRP	0.238
RRIRERPPRLPRPRPRPWPYPRP	0.00489
RRIRWRPPRLPRPRPRPICAPRP	0.291
RRIRSRPPRLPRPRPRPEVSPRP	0.214
RRIRMRPPRLPRPRPRPCNTPRP	-0.238
RRIRRRPPRLPRPRPRPWDDPRP	-0.0642
RRIRKRPPRLPRPRPRPNKKPRP	-0.279
RRIRKRPPRLPRPRPRPDPWPRP	0.422
RRIRERPPRLPRPRPRPYTSPRP	-0.141
RRIRLRPPRLPRPRPRPKEEPRP	-0.0533
RRIRYRPPRLPRPRPRPLLFPRP	-0.614
RRIRIRPPRLPRPRPRPEDMPRP	0.0397
RRIRMRPPRLPRPRPRPHARPRP	0.299
RRIRKRPPRLPRPRPRPCQYPRP	-0.26
RRIRCRPPRLPRPRPRPCMLPRP	-0.758
RRIRKRPPRLPRPRPRPVHHPRP	-0.0438
RRIRFRPPRLPRPRPRPDTAPRP	-0.22
RRIRLRPPRLPRPRPRPKVMPRP	-0.044
RRIRARPPRLPRPRPRPRTHPRP	0.259

Sequence	shrunken log2 fold change
RRIRTRPPRLPRPRPRPWKIPRP	-0.0703
RRIRCRPPRLPRPRPRPVYEPRP	-0.342
RRIRCRPPRLPRPRPRPVHAPRP	0.065
RRIRVRPPRLPRPRPRPNGSPRP	0.00532
RRIRERPPRLPRPRPRPLQAPRP	0.167
RRIRSRPPRLPRPRPRPRLDPRP	0.25
RRIRARPPRLPRPRPRPHGPPRP	0.321
RRIRMRPPRLPRPRPRPHESPRP	0.432
RRIRPRPPRLPRPRPRPDASPRP	0.37
RRIRWRPPRLPRPRPRPTEYPRP	-0.0755
RRIRCRPPRLPRPRPRPHPMPRP	-0.243
RRIRRRPPRLPRPRPRPDDHPRP	-0.276
RRIRRRPPRLPRPRPRPTYNPRP	-0.267
RRIRKRPPRLPRPRPRPMLIPRP	0.0347
RRIRTRPPRLPRPRPRPCCAPRP	0.125
RRIRPRPPRLPRPRPRPDTCPRP	-0.594
RRIRARPPRLPRPRPRPHAWPRP	0.375
RRIRTRPPRLPRPRPRPDFEPRP	0.0498
RRIRTRPPRLPRPRPRPGDLPRP	-0.0395
RRIRVRPPRLPRPRPRPFKLPRP	-0.277
RRIRQRPPRLPRPRPRPNVMPRP	-0.254
RRIRMRPPRLPRPRPRPQCAPRP	0.645
RRIRLRPPRLPRPRPRPCKKPRP	-0.149
RRIRSRPPRLPRPRPRPKWCPRP	-0.132
RRIRARPPRLPRPRPRPQNIPRP	-0.56

Sequence	shrunken log2 fold change
RRIRSRPPRLPRPRPRPCGHPRP	0.0213
RRIRLRPPRLPRPRPRPMMKPRP	-0.0811
RRIRLRPPRLPRPRPRPGWGPRP	0.335
RRIRERPPRLPRPRPRPEAYPRP	-0.0132
RRIRLRPPRLPRPRPRPCYIPRP	-0.115
RRIRNRPPRLPRPRPRPARAPRP	0.44
RRIRIRPPRLPRPRPRPSGDPRP	-0.742
RRIRCRPPRLPRPRPRPQMMPRP	-0.346
RRIRNRPPRLPRPRPRPLVHPRP	0.0443
RRIRDRPPRLPRPRPRPWSPPRP	0.127
RRIRWRPPRLPRPRPRPKCLPRP	-0.197
RRIRYRPPRLPRPRPRPKNVPRP	0.0242
RRIRKRPPRLPRPRPRPYDLPRP	0.115
RRIRFRPPRLPRPRPRPRFLPRP	-0.421
RRIRVRPPRLPRPRPRPKLSPRP	-0.0136
RRIRRRPPRLPRPRPRPQCYPRP	-0.136
RRIRTRPPRLPRPRPRPFCIPRP	-0.361
RRIRVRPPRLPRPRPRPTHPPRP	0.378
RRIRHRPPRLPRPRPRPCPYPRP	-0.546
RRIRKRPPRLPRPRPRPAEWPRP	0.0965
RRIRPRPPRLPRPRPRPWYFPRP	-1.02
RRIRQRPPRLPRPRPRPATKPRP	0.154
RRIRFRPPRLPRPRPRPYICPRP	-0.4
RRIRMRPPRLPRPRPRPGKKPRP	0.532
RRIRMRPPRLPRPRPRPYMCPRP	0.00451

Sequence	shrunken log2 fold change
RRIRMRPPRLPRPRPRPVVTPRP	0.0538
RRIRERPPRLPRPRPRPSFRPRP	-0.431
RRIRDRPPRLPRPRPRPSCWPRP	0.585
RRIRDRPPRLPRPRPRPWSMPRP	-0.0018
RRIRKRPPRLPRPRPRPCIEPRP	-0.00715
RRIRFRPPRLPRPRPRPWNDPRP	-0.243
RRIRLRPPRLPRPRPRPVMSPRP	-0.152
RRIRMRPPRLPRPRPRPAKTPRP	0.0368
RRIRTRPPRLPRPRPRPRYAPRP	0.108
RRIRMRPPRLPRPRPRPTNSPRP	-0.302
RRIRMRPPRLPRPRPRPQDSPRP	0.051
RRIRSRPPRLPRPRPRPYNEPRP	-0.554
RRIRRRPPRLPRPRPRPYMEPRP	-0.0924
RRIRDRPPRLPRPRPRPKALPRP	-0.00674
RRIRMRPPRLPRPRPRPVNVPRP	0.0663
RRIRARPPRLPRPRPRPDWIPRP	-0.0382
RRIRNRPPRLPRPRPRPDGPPRP	0.01
RRIRGRPPRLPRPRPRPQCSPRP	-0.0401
RRIRCRPPRLPRPRPRPFQQPRP	-0.00107
RRIRTRPPRLPRPRPRPKMSPRP	0.116
RRIRHRPPRLPRPRPRPRAHPRP	0.216
RRIRLRPPRLPRPRPRPQWVPRP	-0.0367
RRIRERPPRLPRPRPRPGNRPRP	-0.0677
RRIRIRPPRLPRPRPRPMQEPRP	-0.2
RRIRHRPPRLPRPRPRPEAFPRP	-0.0165
